Measurements reported in PMC9352680, “A comprehensive thermodynamic model for RNA binding by the Saccharomyces cerevisiae Pumilio protein PUF4”.

T1: PUF4 RNA-binding domain (Saccharomyces cerevisiae, UniProt P25339 537-888)
T1 sequence: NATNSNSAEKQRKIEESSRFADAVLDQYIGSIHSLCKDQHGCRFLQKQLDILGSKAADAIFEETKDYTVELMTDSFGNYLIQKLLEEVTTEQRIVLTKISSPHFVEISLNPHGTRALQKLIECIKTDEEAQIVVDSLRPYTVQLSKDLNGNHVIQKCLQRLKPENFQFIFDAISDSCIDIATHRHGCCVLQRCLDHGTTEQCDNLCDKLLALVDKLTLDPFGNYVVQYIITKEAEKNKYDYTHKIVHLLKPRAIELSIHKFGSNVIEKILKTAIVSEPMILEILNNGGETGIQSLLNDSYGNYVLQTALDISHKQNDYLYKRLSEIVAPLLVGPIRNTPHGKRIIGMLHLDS


Biological target: T1, PUF4 RNA-binding domain
Assay: Mg; RNA-MaP; 20 mM Na-HEPES pH 7.4, 30 mM KOAc, 0.75 mM MgCl2, 0.1% Tween-20, 5% glycerol, 0.1 mg/mL BSA, 2 mM DTT; 25 C; 0.0125-409.6 nM protein
Details: tags: N-His6-TEV cleaved; C-SNAP kept, Cy3B-labelled; label: tethered on chip by stalled RNA polymerase

Row | Binder | Kd [nM]
1 | UCUCUUCAAACACUAUAUAUCUCUU (ssRNA) [Id_i_S1_P3E.7_K3.3_C3.3_[T-3C]_[C-2A]_[T-1A]_H3.3_A3.1_F3.1_T3.2] | 2040
2 | UCUCUUCUAUGUAUAUAUAUCUCUU (ssRNA) [Id_i_S1_P3E.5_K3.1_C3.3_[T-3C]_[C-2T]_[T-1A]_H3.1_A3.1_F3.1_T3.2] | 10.2
3 | UCUCUUGUCUAUAUAUAUAUCUCUU (ssRNA) [Id_i_S1_P3E.6_K3.2_C3.3_[T-3G]_[C-2T]_[T-1C]_H3.2_A3.1_F3.1_T3.2] | 102
4 | UCUCUUCGCUAUAUAUAUAUCUCUU (ssRNA) [Id_i_S1_P3E.6_K3.2_C3.3_[T-3C]_[C-2G]_[T-1C]_H3.2_A3.1_F3.1_T3.2] | 517
5 | UCUCUUCGCUGUAUAUAUAUCUCUU (ssRNA) [Id_i_S1_P3E.5_K3.1_C3.3_[T-3C]_[C-2G]_[T-1C]_H3.1_A3.1_F3.1_T3.2] | 8.53
6 | UCUCUUAAUAUAUAUAUAUCUCUU (ssRNA) [Id_i_S1_P3E.3_K3.2_C3.2_[C-2A]_[T-1A]_H3.2_A3.1_F3.1_T3.2] | 675
7 | UCUCUUCAAUGUAUAUAUAUCUCUU (ssRNA) [Id_i_S1_P3E.5_K3.1_C3.3_[T-3C]_[C-2A]_[T-1A]_H3.1_A3.1_F3.1_T3.2] | 7.95
8 | UCUCUUAAAUAUAUAUAUAUCUCUU (ssRNA) [Id_i_S1_P3E.6_K3.2_C3.3_[T-3A]_[C-2A]_[T-1A]_H3.2_A3.1_F3.1_T3.2] | 1040
9 | UCUCUUCUCUGUAUAUAUAUCUCUU (ssRNA) [Id_i_S1_P3E.5_K3.1_C3.3_[T-3C]_[C-2T]_[T-1C]_H3.1_A3.1_F3.1_T3.2] | 4.39
10 | UCUCUUAAAUGUAUAUAUAUCUCUU (ssRNA) [Id_i_S1_P3E.5_K3.1_C3.3_[T-3A]_[C-2A]_[T-1A]_H3.1_A3.1_F3.1_T3.2] | 10.3
11 | UCUCUUUGUAUAAUCUCUCUU (ssRNA) [Ic_S1_P4E.1_K4.1_C4.1_H4.1_A4.1_[T7A]_F4.1_[A9C]_T4.1] | 15.8
12 | UCUCUUGCACACUAUAUAUCUCUU (ssRNA) [Id_i_S1_P3E.4_K3.3_C3.2_[C-2G]_[T-1C]_H3.3_A3.1_F3.1_T3.2] | 116
13 | UCUCUUUGUAAAUUAUCUCUU (ssRNA) [Ia_S1_P4E.1_K4.1_C4.1_H4.1_A4.1_[T5A]_F4.1_T4.1] | 2.08
14 | UCUCUUAAUGUAUAUAUAUCUCUU (ssRNA) [Id_i_S1_P3E.2_K3.1_C3.2_[C-2A]_[T-1A]_H3.1_A3.1_F3.1_T3.2] | 7.22
15 | UCUCUUCUCUAUAUAUAUAUCUCUU (ssRNA) [Id_i_S1_P3E.6_K3.2_C3.3_[T-3C]_[C-2T]_[T-1C]_H3.2_A3.1_F3.1_T3.2] | 389
16 | UCUCUUAAAACACUAUAUAUCUCUU (ssRNA) [Id_i_S1_P3E.7_K3.3_C3.3_[T-3A]_[C-2A]_[T-1A]_H3.3_A3.1_F3.1_T3.2] | 2250

Row | Binder | Kd [nM]
17 | UCUCUUGUUAUAUUAUCUCUU (ssRNA) [Ib_S1_P4E.1_K4.1_C4.1_H4.1_[T1G]_[G2T]_A4.1_F4.1_T4.1] | 12.3
18 | UCUCUUGUCACACUAUAUAUCUCUU (ssRNA) [Id_i_S1_P3E.7_K3.3_C3.3_[T-3G]_[C-2T]_[T-1C]_H3.3_A3.1_F3.1_T3.2] | 39
19 | UCUCUUCUAUAUAUAUAUAUCUCUU (ssRNA) [Id_i_S1_P3E.6_K3.2_C3.3_[T-3C]_[C-2T]_[T-1A]_H3.2_A3.1_F3.1_T3.2] | 341
20 | UCUCUUAACACACUAUAUAUCUCUU (ssRNA) [Id_i_S1_P3E.7_K3.3_C3.3_[T-3A]_[C-2A]_[T-1C]_H3.3_A3.1_F3.1_T3.2] | 2180
21 | UCUCUUUGACACUAUAUAUCUCUU (ssRNA) [Id_i_S1_P3E.4_K3.3_C3.2_[C-2T]_[T-1G]_H3.3_A3.1_F3.1_T3.2] | 2180
22 | UCUCUUAGCACACUAUAUAUCUCUU (ssRNA) [Id_i_S1_P3E.7_K3.3_C3.3_[T-3A]_[C-2G]_[T-1C]_H3.3_A3.1_F3.1_T3.2] | > 2300
23 | UCUCUUAGUGUAUAUAUAUCUCUU (ssRNA) [Id_i_S1_P3E.2_K3.1_C3.2_[C-2A]_[T-1G]_H3.1_A3.1_F3.1_T3.2] | 14.6
24 | UCUCUUAUCUAUAUAUAUAUCUCUU (ssRNA) [Id_i_S1_P3E.6_K3.2_C3.3_[T-3A]_[C-2T]_[T-1C]_H3.2_A3.1_F3.1_T3.2] | 650
25 | UCUCUUAGCUAUAUAUAUAUCUCUU (ssRNA) [Id_i_S1_P3E.6_K3.2_C3.3_[T-3A]_[C-2G]_[T-1C]_H3.2_A3.1_F3.1_T3.2] | 805
26 | UCUCUUGGCACACUAUAUAUCUCUU (ssRNA) [Id_i_S1_P3E.7_K3.3_C3.3_[T-3G]_[C-2G]_[T-1C]_H3.3_A3.1_F3.1_T3.2] | 821
27 | UCUCUUCAAUAUAUAUAUAUCUCUU (ssRNA) [Id_i_S1_P3E.6_K3.2_C3.3_[T-3C]_[C-2A]_[T-1A]_H3.2_A3.1_F3.1_T3.2] | 777
28 | UCUCUUCACUAUAUAUAUAUCUCUU (ssRNA) [Id_i_S1_P3E.6_K3.2_C3.3_[T-3C]_[C-2A]_[T-1C]_H3.2_A3.1_F3.1_T3.2] | 144
29 | UCUCUUUAUAUAUAUAUAUCUCUU (ssRNA) [Id_i_S1_P3E.3_K3.2_C3.2_[C-2T]_[T-1A]_H3.2_A3.1_F3.1_T3.2] | 439
30 | UCUCUUGACUAUAUAUAUAUCUCUU (ssRNA) [Id_i_S1_P3E.6_K3.2_C3.3_[T-3G]_[C-2A]_[T-1C]_H3.2_A3.1_F3.1_T3.2] | 806
31 | UCUCUUAGCUGUAUAUAUAUCUCUU (ssRNA) [Id_i_S1_P3E.5_K3.1_C3.3_[T-3A]_[C-2G]_[T-1C]_H3.1_A3.1_F3.1_T3.2] | 7.66
